Measurements from patent US9315862B2, “Aptamer regulated nucleic acids and uses thereof” (California Institute of Technology, priority 2004, dated 2016).

How the values were obtained:
theophylline aptamer = conditions: cited from earlier work
E. coli membrane = conditions: cited from earlier work
[1] = tested on: target mRNA encoding green fluorescent protein (GFP); assay: Protein expression assay: in vivo GFP regulation activity of antiswitches in yeast cells; type: cell-based, S. cerevisiae; conditions: for theophylline concentration at which the antiswitch switches GFP expression (inhibits expression / decreases to background levels): theophylline concentration in the media, s8 is an "on" switch; for switching theophylline concentration compared with s1-4: modified lower-affinity theophylline aptamer
Method: (§1) Yeast cells were inoculated into synthetic complete media supplemented with the appropriate drop out solution and sugar source (2% raffinose, 1% sucrose) and grown overnight at 30° C. Cells were back diluted into fresh media to an OD600 of 0.1 and grown at 30° C. For assaying antiswitch activity, this fresh media contained appropriate concentrations of theophylline (Sigma), caffeine (Sigma), tetracycline (Sigma), or water (negative control) and expression was induced to a final concentration of 2% galactose, or an equivalent volume of water was added (noninduced control). After growing for three hours, the GFP and Venus levels were assayed on a Safire (Tecan) fluorescent plate reader set to the appropriate excitation (GFP-485 nm; Venus-515 nm) and emission (GFP-515 nm; Venus-[…]) wavelengths. For assaying the antiswitch temporal response, cells were back diluted into fresh media containing 2% galactose. After growing in inducing media for three hours, theophylline or water was added and fluorescence was monitored over time. Fluorescence was normalized for cell number by dividing relative fluorescence units (RFUs) by the OD600 of the culture.
The expression of antiswitches in S. cerevisiae was accomplished using a novel non-coding RNA (ncRNA) expression construct similar to a previously described system (Taira et al., Nucleic Acids Res 19, 5125-30 (1991)) (see FIG. 6). Briefly, the RNA to be expressed is cloned between two hammerhead ribozymes known to self-cleave in vivo (Samarsky et al., Proc Natl Acad Sci USA 96, 6609-14 (1999)). This dual hammerhead construct can be placed under the control of Pol II promoters, and when transcribed the flanking hammerhead ribozymes cleave out from the desired RNA at an efficiency greater than 99% (see FIG. 11). The construct enables creation of ncRNAs with defined 5′ and 3′ ends that are free of potentially interfering flanking sequences. Antiswitch s1 was expressed in this construct under control of a galactose-inducible (GAL1) promoter in yeast cells. A plasmid containing a yeast enhanced GFP (yEGFP) (Mateus et al., Yeast 16, 1313-23 (2000)) under the control of a GAL1 promoter was transformed into the same cells (FIG. 1a).

[2] = Structural probing of antiswitch by nuclease mapping (RNase T1) with theophylline alone
Method: Antiswitch and target sequences were PCR amplified with primers containing a T7 polymerase promoter. RNA was transcribed using Ampliscribe T7 transcription kits (Epicentre) according to manufacture's instructions, except that transcription was carried out at 42° C. and for gel-shift assays antiswitches were radiolabeled by the addition of [α-^32P]-UTP to the transcription mix. The RNA was purified on a 15% denaturing gel, eluted, ethanol precipitated, and resuspended in water. RNA was quantified by OD260 readings. For nuclease mapping, antiswitches were 5′ end labeled with fluorescein (Molecular Probes) by incubating 25 μg of RNA with phosphate reactive label, dissolved in DMSO (Sigma), in labeling buffer (0.12 M methylimidazole pH 9.0, 0.16 M EDAC) for four hours, according to manufacturer's instructions. Labeled RNA was purified by ethanol precipitation and run on a 12% denaturing gel. Fluorescent bands were excised from the gel, eluted into water for three hours at 37° C., and ethanol precipitated.
For nuclease mapping, fluorescein-labeled antiswitch RNA was resuspended in buffer (50 mM Tris-HCl pH 8.0, 100 mM NaCl, 5 mM MgCl2), denatured at 65° C. for three minutes, and allowed to slow cool to room temperature. Antiswitch RNA was incubated with varying concentrations of theophylline at room temperature for 15 minutes. RNase T1 (Ambion) was added to the antiswitch-ligand mixture and incubated at room temperature for 15 minutes. Cleavage products were visualized using laser-induced fluorescence capillary electrophoresis on a P/ACE MDQ machine (Beckman) using a single-stranded nucleic acid analysis kit (Beckman) according to manufacturer's instructions.

GFP mRNA = assay: RNA quantification by qRT-PCR of antiswitch s1 and target mRNA; type: cell-based, S. cerevisiae
Method: Yeast cells were grown according to methods detailed in protein expression assays. Total RNA was extracted using standard acid phenol extraction procedures (Caponigro et al., Mol Cell Biol 13, 5141-8 (1993)). Briefly, cells were pelleted and frozen in liquid nitrogen. Pellets were resuspended in a 50 mM NaOAc (pH 5.2) and 10 mM EDTA buffer. Cells were lysed by the addition of SDS to a final concentration of 1.6% and equal volume of acid phenol. Solutions were kept at 65° C. with intermittent vortexing for 10 minutes. Following cooling on ice, the aqueous phase was extracted and further extraction was carried out with an equal volume of chloroform. RNA samples were ethanol precipitated and resuspended in water. Total RNA was quantified by OD260 readings. RNA samples were DNased (Invitrogen) according to manufacturer's instructions. cDNA was synthesized using gene-specific primers (see FIG. 13) and Superscript III reverse transciptase (Invitrogen) according to the manufacturer's instructions. qRT-PCR was performed on this cDNA using an iCycler iQ system (BioRAD). Samples were prepared using the iQ SYBR green supermix and primer pairs specific for different templates (see FIG. 13) on dilution series of the cDNA, according to the manufacturer's instructions. Data was analyzed using the iCycler iQ software.

[3] = tested on: yellow fluorescent variant protein (Venus) mRNA target; assay: Protein expression assay: in vivo Venus (YFP) regulation by antiswitches in yeast cells; type: cell-based, S. cerevisiae
Method: as §1
To illustrate this we introduced into cells two switches each responsive to a different effector molecule and each regulating the protein expression of a different mRNA target: s1, a theophylline responsive GFP regulator, and s9 (see FIG. 9), a tetracycline responsive yellow fluorescent variant protein (Venus) (Nagai et al., Nat Biotechnol 20, 87-90 (2002)) regulator (FIG. 5a). Changes in the targeting capabilities of these molecules were made by swapping out the antisense stem and switching aptamer stem while keeping the remainder of the aptamer module the same. Concurrent expression of these two antiswitches with a plasmid carrying both GFP and Venus allowed for an assay of the simultaneous regulation of gene expression by modular antiswitch design. […] Furthermore, the addition of both ligands decreased expression of both GFP and Venus. […]

[4] = cells with s1 and s9, plasmid carrying both GFP and Venus
[5] = theophylline and tetracycline, cells with s1 and s9

Cn1c(=O)c2c(ncn2C)n(C)c1=O [caffeine]
binding to the theophylline aptamer (theophylline aptamer): does not bind

Cn1c(=O)c2[nH]cnc2n(C)c1=O [theophylline]
Kd (theophylline aptamer): 0.29 µM | drop in theophylline concentration across the E. coli membrane (E. coli membrane): > 1,000 fold

s8: redesigned "on" antiswitch regulator responsive to theophylline, SEQ ID NO: 8 (ACCUUUAGACAUUUAGAUACCAGCAUCGUCUUGAUGCCCUUGGCAGCUAAAUGUC; RNA, backbone not given here)
theophylline concentration at which the antiswitch switches GFP expression (inhibits expression / decreases to background levels) [1]: around 1 mM

B1: s5: antiswitch with aptamer domain having 10-fold lower affinity to theophylline than s1, SEQ ID NO: 5 (nucleic acid)
chain: ACCUUUAGACAUUUACCUCUAAAUGUCUAAAGGUGAUACCACGCGAAAGCGCCUUGGCAGCACCUUUAG
modifications: RNA, backbone not given here
theophylline concentration required to switch, relative to s1 [1]: ~10 fold | switching theophylline concentration compared with s1-4 [1]: higher theophylline concentrations | Kd of aptamer domain for theophylline relative to the aptamer used in s1 (higher Kd / lower affinity) (theophylline aptamer): ~10 fold

B2: s6: destabilized modified theophylline aptamer antiswitch based on s5, SEQ ID NO: 6 (nucleic acid)
chain: ACCUUUAGACAUUUACCUCUACAUGUCUAAAGGUGAUACCACGCGAAAGCGCCUUGGCAGCACCUUUAG
modifications: RNA, backbone not given here
switching theophylline concentration compared with s1-4 [1]: higher theophylline concentrations

B3: s3: stabilized antiswitch construct, antisense stem five nucleotides longer than s1, SEQ ID NO: 3 (nucleic acid)
chain: ACCUUUAGACAUUUAAUUAACCUCUUAAUUAAAUGUCUAAAGGUGAAGAUACCAGCAUCGUCUUGAUGCCCUUGGCAGCUUCACCUUUAG
modifications: RNA, backbone not given here
theophylline concentration required to switch, relative to s1 [1]: roughly 1.5 fold | theophylline concentration required to switch, relative to s2 [1]: ~6 fold | decrease (inhibition) of GFP expression from control/full expression levels in the "off" state ([1]; absence of theophylline): 10% | theophylline concentration at which the antiswitch switches GFP expression (inhibits expression / decreases to background levels) [1]: approximately 1.25 mM

B4: s1: theophylline-responsive "off" antiswitch RNA targeting GFP mRNA, SEQ ID NO: 1 (nucleic acid)
chain: ACCUUUAGACAUUUACCUCUAAAUGUCUAAAGGUGAUACCAGCAUCGUCUUGAUGCCCUUGGCAGCACCUUUAG
modifications: chemistry not given here
antisense domain (peak 1) RNase T1 cleavage ([2]; 2 mM theophylline): appearance of peak 1 | switching aptamer stem (peak 2) RNase T1 cleavage ([2]; 2 mM theophylline): absent | switching aptamer stem (peak 2) RNase T1 cleavage ([2]; absence of theophylline and 200 μM theophylline): cleaved | GFP expression on addition of caffeine ([1]; caffeine as negative control effector): does not change expression levels | GFP expression on addition of theophylline [1, 4]: decreased | GFP expression on addition of both ligands [1, 5]: decreased | relative levels of target transcript (GFP mRNA; cells harboring s1, absence versus high levels of theophylline): did not change significantly | steady-state relative level of antiswitch versus target levels (GFP mRNA; same promoter for antiswitch and target): approximately 1,000 fold | Venus expression on addition of theophylline [3, 4]: unaffected

B5: s2: destabilized antiswitch construct based on s1 (A21 to C), SEQ ID NO: 2 (nucleic acid)
chain: ACCUUUAGACAUUUACCUCUACAUGUCUAAAGGUGAUACCAGCAUCGUCUUGAUGCCCUUGGCAGCACCUUUAG
modifications: RNA, backbone not given here
theophylline concentration at which the antiswitch switches GFP expression (inhibits expression / decreases to background levels) [1]: greater than 0.2 mM

B6: s4: destabilized antiswitch construct with altered loop sequence (U18 to C), SEQ ID NO: 4 (nucleic acid)
chain: ACCUUUAGACAUUUACCCCUACAUGUCUAAAGGUGAUACCAGCAUCGUCUUGAUGCCCUUGGCAGCACCUUUAG
modifications: RNA, backbone not given here
theophylline concentration at which the antiswitch switches GFP expression (inhibits expression / decreases to background levels) [1]: 0.1 mM

B7: s9: tetracycline-responsive Venus (YFP) regulator antiswitch, SEQ ID NO: 9 (nucleic acid)
chain: UUGCUCACCAUGGUCCUCACCAUGGUGAGCAAAAAACAUACCAGAUCGCCACCCGCGCUUUAAUCUGGAGAGGUGAAGAAUACGACCACCUUUGCUCAC
modifications: chemistry not given here
GFP expression on addition of tetracycline [1, 4]: not affecting | Venus expression on addition of tetracycline [3, 4]: decreased | Venus expression on addition of both ligands [3, 5]: decreased
